Experimental data reported in paper PMC9890572.
Several values for one entry are separate records, joined by “and”; a condition that tells them apart may be missing. Equal entries are not always repeated.

Target: smBiT–β-arrestin2 (UniProt P32121)
Assay: split reporter

UniProt P32121, sequence (P32121 whole entry): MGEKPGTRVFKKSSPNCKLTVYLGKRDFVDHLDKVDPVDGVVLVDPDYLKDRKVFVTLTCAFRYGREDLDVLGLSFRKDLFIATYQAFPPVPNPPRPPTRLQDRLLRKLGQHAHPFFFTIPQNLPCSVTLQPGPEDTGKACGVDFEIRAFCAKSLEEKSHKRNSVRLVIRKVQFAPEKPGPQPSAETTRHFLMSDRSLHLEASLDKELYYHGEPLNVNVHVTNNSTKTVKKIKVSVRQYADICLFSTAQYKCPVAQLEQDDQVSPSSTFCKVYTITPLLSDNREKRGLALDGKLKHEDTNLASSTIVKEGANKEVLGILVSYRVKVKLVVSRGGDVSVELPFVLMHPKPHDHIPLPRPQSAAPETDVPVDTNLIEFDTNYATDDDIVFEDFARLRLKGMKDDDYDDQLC

## Gαi-LgBiT (from UniProt P63096 1-354) (natural protein)
  other: -7.6 and -5.9
